How the values were obtained:
[1] = test system: co-cultured BAMEC and LNCaP cells; assay: Three-dimensional growth and tube formation assay, BAMEC/LNCaP co-culture on […]; format: cell-based, bovine, human
Method: Three-dimensional Growth and Tube Formation Assay. To analyze in vitro angiogenesis and interactions between epithelial and endothelial cell formation of tubular networks by co-cultured BAMEC and LNCaP cells, a three-dimensional growth and tube formation assay was performed. Briefly, […]® (10 μl) was added to each chamber of the slide (μ-Slide, ibidi, Martinsried, Germany) and gelled by a 30-min incubation at room temperature, after which 15,000 BAMEC and 5000 LNCaP cells were plated onto the gel in 50 μl of Eagle's minimal essential complete medium. In some chambers, full-length galectin-3 or its fragments were added. After 36 hr, three-dimensional structures were observed under phase contrast microscope and photographed. Images were acquired with an Olympus IX71 microscope supporting a Hamamatsu ORCA-ER video camera. Tube formation image analysis was done using the web-based Image Analysis Win-Tube module of Wimasis online software.
Three-dimensional heterotypic co-cultures of epithelial (LNCaP) and endothelial (BAMEC) cells were performed on […]® to study tube formation in the presence of 10 μg/ml galectin-3 and its fragments. […] FIG. 2B presents a quantitative evaluation of the tube formation assay.

[2] = test system: LNCaP, Du145, and PC3M cell lines; assay: Wound-healing (scratch) assay; format: cell-based, human; details: 24 hr, compared with the control
Method: Wound-healing Assay. A wound-healing assay, the scratch assay, was performed according to the protocol published in Liang, et al. (2007), Nat. Protoc. 2, 329-333. Briefly, in this scratch assay 60-mm dishes were coated with ECM and incubated overnight, unbound ECM was removed and the dishes were blocked with bovine serum albumin. Subconfluent growing cells were resuspended in a tissue culture dish by washing cells with PBS, adding versene containing trypsin, and mixing cells with medium containing serum. Cells were then plated onto the prepared 60-mm dish to create a confluent monolayer, and incubated for 6 hr at 37° C.
The cell lines LNCaP (null galectin-3), DU145 (stable clone with reduced galectin-3 expression), and PC3M were used to examine the effect of full-length galectin-3, galectin-3 1-107, and galectin-3 108-250 on prostate cancer cell motility using the scratch assay. The assay was performed with LNCaP, Du145, and PC3M cultured cell lines stimulated by full-length galectin-3, and fragments galectin-3 1-107 and 108-250. A uniform wound was made in each plate using a 1-μl pipette tip. The wound area was observed immediately, then at 24 hr after creation the cells were counted. Cells were grown under identical conditions.

B1: galectin-3 1-107: recombinant fragment 1-107 of human galectin-3 (SEQ ID NO:2), NH2-terminal domain with collagen-like sequence (protein, listed as Homo sapiens)
chain: MADNFSLHDALSGSGNPNPQGWPGAWGNQPAGAGGYPGASYPGAYPGQAPPGAYPGQAPPGAYPGAPGAYPGAPAPGVYPGPPSGPGAYPSSGQPSATGAYPATGPY
[1]; 10 μg/ml protein added to medium, 36 hr, control 0
  tube formation: loops: 0
[1]; 10 μg/ml protein, BAMEC/LNCaP co-culture
  branching morphogenesis of endothelial cells: failed to do so
[2]
  prostate cancer cell motility: did not show a significant increase in motility

From patent US20150377889A1, “GALECTIN-3 AS A MARKER FOR PROSTATE CANCER” (Wayne State University, priority 2013, published 2015)
